Reference: the supplement of paper PMC10065799, “High-throughput profiling of sequence recognition by tyrosine kinases and SH2 domains using bacterial peptide display” (eLife, 2023)

How the values were obtained:
FGFR1 = FGFR1 (UniProt P11362); experiment: phosphorylation enrichment, bacterial display (enrichment ratio); higher = better substrate or ligand; peptides without Tyr show the background
EPHB1 = EPHB1 (UniProt P54762); experiment: as above
AncSZ = experiment: as above
MERTK = MERTK (UniProt Q12866); experiment: as above
Fyn = Fyn (UniProt P06241); experiment: as above
Fes = Fes (UniProt P07332); experiment: as above
Fes, sequence (P07332 whole entry, looked up): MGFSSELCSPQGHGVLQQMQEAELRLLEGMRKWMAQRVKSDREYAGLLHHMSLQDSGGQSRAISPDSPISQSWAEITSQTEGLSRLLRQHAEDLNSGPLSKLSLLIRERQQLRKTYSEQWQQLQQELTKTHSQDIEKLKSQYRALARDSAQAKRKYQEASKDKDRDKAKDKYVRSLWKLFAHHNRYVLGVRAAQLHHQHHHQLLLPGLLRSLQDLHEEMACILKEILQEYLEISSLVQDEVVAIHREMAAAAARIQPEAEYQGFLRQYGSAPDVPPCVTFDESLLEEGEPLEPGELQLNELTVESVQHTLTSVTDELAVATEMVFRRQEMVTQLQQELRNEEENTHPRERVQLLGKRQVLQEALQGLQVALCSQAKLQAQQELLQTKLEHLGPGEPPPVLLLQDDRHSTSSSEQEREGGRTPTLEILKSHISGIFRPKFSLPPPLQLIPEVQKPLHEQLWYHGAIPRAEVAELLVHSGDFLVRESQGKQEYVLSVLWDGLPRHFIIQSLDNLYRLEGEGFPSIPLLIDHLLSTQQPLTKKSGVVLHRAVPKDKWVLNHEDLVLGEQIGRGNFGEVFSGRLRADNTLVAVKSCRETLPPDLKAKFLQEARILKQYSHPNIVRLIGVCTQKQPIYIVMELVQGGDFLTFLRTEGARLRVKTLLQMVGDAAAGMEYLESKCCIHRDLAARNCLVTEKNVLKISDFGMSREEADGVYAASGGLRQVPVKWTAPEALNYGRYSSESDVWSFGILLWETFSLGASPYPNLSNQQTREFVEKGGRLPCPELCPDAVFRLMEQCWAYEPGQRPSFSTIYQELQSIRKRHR

c-Abl (mouse) = experiment: as above
Hck = Hck (UniProt P08631); experiment: as above
Jak2 = Jak2 (UniProt O60674); experiment: as above
Jak2, sequence (O60674 whole entry, looked up): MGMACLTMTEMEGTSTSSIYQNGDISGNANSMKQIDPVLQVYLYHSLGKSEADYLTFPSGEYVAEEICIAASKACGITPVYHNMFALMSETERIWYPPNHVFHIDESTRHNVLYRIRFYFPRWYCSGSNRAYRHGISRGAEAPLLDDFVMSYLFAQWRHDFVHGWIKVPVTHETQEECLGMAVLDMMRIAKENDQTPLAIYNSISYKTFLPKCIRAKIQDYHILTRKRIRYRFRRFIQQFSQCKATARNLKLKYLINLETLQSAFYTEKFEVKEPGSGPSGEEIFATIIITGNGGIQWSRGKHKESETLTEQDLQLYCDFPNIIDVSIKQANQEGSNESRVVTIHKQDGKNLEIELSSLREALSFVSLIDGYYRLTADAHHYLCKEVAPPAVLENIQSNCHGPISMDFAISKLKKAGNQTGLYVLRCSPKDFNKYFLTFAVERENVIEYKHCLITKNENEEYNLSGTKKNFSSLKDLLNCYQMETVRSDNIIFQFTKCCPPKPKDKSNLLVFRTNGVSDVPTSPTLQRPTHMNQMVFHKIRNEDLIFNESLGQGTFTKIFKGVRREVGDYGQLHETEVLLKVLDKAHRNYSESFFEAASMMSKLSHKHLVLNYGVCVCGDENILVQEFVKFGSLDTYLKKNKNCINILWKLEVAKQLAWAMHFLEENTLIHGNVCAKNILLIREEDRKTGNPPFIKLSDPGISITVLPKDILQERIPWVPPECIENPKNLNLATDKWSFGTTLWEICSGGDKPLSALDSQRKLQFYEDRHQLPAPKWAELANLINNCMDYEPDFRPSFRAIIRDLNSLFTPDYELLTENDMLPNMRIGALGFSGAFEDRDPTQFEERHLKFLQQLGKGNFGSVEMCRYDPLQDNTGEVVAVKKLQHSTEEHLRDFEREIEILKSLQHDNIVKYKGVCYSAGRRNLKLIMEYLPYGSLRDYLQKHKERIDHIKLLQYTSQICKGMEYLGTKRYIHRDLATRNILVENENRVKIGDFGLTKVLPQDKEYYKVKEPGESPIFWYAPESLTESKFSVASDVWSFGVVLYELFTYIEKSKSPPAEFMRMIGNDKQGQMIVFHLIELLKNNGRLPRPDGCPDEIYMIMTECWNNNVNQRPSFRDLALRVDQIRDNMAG

EPHB2 = EPHB2 (UniProt P29323); experiment: as above
Fer (mouse) = experiment: as above
c-Src = experiment: as above
FGFR3 = FGFR3 (UniProt P22607); experiment: as above
FGFR3, sequence (P22607 whole entry, looked up): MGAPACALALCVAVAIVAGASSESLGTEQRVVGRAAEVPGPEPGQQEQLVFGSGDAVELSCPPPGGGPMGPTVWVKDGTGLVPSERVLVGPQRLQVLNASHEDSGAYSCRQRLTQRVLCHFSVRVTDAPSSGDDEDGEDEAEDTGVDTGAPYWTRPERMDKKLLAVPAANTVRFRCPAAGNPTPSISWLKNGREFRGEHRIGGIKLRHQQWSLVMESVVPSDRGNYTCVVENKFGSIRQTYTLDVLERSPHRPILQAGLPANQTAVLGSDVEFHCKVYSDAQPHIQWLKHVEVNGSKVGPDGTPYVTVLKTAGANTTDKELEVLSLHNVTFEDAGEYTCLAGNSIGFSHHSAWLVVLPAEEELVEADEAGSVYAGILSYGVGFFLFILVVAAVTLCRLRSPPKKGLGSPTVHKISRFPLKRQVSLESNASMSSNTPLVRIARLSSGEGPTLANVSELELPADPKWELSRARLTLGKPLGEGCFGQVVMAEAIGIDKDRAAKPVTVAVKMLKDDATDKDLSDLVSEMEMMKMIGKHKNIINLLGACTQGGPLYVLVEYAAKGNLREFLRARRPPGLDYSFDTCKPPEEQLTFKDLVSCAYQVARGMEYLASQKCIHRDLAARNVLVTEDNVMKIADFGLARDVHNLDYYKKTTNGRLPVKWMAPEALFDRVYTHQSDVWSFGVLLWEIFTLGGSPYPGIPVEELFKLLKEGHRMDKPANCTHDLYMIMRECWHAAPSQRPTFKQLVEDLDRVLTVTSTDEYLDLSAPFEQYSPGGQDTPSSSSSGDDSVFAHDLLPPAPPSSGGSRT

c-Src SH2 = experiment: SH2 binding enrichment of the phosphorylated peptide, bacterial display (enrichment ratio); higher = better substrate or ligand; peptides without Tyr show the background
SHP2-C SH2 = experiment: as above
Grb2 SH2 = Grb2 SH2 (UniProt P62993); experiment: as above
Grb2 SH2, sequence (P62993 whole entry, looked up, the tested form may be a part): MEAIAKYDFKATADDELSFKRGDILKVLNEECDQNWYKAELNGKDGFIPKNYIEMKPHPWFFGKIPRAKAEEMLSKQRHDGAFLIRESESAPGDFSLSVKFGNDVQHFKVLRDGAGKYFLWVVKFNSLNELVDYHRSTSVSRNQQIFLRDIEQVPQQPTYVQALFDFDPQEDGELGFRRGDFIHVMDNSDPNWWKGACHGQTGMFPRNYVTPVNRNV
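Wherever SH2 binding enrichment of the phosphorylated peptide, bacterial display is given: peptide library displayed on the E. coli surface as eCPX fusions, selected cells deep-sequenced, score is each peptide's frequency after selection divided by its frequency in the input.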
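Wherever phosphorylation enrichment, bacterial display is given: 11-residue human phosphosite peptides and single-mutation variants displayed on the E. coli surface, counted by deep sequencing, each peptide's frequency after selection divided by its frequency in the unselected input library; frequency after pTyr selection over input frequency; kinase dosed for 20-30% of maximal phosphorylation in three min.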

EPHB1, sequence (P54762 whole entry, looked up): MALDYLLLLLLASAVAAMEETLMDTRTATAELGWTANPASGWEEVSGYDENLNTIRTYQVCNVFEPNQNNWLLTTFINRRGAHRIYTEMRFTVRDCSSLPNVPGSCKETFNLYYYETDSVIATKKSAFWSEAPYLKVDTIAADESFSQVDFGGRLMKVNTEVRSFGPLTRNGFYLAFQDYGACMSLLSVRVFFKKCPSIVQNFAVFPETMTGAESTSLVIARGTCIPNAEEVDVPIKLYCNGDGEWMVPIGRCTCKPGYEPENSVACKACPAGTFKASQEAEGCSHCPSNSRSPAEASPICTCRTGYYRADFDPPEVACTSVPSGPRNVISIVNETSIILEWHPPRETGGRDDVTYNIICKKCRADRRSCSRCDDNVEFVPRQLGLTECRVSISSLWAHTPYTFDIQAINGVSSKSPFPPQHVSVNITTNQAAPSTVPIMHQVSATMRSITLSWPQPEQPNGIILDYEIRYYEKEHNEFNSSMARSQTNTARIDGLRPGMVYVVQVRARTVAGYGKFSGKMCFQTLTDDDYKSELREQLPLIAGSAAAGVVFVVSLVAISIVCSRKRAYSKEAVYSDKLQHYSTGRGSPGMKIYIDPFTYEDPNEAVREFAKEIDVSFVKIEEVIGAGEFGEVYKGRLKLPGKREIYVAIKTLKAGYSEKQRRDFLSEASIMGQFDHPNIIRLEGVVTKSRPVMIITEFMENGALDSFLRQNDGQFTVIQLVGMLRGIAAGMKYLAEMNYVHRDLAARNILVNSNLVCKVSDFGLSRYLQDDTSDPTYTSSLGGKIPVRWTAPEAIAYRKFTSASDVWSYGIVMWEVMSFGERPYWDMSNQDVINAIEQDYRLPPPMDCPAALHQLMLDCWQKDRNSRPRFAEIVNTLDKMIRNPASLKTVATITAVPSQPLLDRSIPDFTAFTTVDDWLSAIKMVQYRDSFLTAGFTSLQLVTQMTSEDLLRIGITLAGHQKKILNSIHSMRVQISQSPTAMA
FGFR1, sequence (P11362 whole entry, looked up): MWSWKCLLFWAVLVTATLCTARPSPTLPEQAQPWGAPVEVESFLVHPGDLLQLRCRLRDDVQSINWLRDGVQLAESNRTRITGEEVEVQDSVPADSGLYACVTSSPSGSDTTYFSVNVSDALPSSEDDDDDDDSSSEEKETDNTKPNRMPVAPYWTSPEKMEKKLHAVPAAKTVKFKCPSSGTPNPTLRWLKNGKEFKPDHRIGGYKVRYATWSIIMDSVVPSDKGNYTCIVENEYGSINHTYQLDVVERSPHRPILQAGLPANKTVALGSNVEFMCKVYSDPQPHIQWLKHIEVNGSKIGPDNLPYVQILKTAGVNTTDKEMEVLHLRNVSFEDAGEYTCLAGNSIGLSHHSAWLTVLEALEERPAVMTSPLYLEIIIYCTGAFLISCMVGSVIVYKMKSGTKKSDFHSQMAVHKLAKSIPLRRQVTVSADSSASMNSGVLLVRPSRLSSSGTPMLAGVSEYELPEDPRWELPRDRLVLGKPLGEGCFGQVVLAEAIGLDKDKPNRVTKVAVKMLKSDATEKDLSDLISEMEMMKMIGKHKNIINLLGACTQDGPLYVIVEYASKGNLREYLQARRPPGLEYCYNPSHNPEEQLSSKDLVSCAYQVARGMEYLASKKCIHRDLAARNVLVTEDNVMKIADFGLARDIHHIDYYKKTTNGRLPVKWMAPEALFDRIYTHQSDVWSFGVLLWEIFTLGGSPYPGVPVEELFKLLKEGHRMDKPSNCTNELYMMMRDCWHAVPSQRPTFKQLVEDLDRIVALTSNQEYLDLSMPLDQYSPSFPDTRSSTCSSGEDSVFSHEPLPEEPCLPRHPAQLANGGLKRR

Sequence	phosphorylation enrichment (FGFR1)	phosphorylation enrichment (EPHB1)	phosphorylation enrichment (AncSZ)	phosphorylation enrichment (MERTK)	phosphorylation enrichment (Fyn)	phosphorylation enrichment (Fes)	phosphorylation enrichment (c-Abl (mouse))	phosphorylation enrichment (Hck)	phosphorylation enrichment (Jak2)	phosphorylation enrichment (EPHB2)	phosphorylation enrichment (Fer (mouse))	phosphorylation enrichment (c-Src)	phosphorylation enrichment (FGFR3)	SH2 binding enrichment (c-Src SH2)	SH2 binding enrichment (SHP2-C SH2)	SH2 binding enrichment (Grb2 SH2)
GEHSIYCTVNN [CD55_Y266]	0.955	6.56	1.55	2.08	5.28	1.73	1.98	5.61	1.22	5.39	5.03	4.66	1.07	0.48	0.639	0.598
LYYYSYLLKNH [PTEN_Y180_V175L]	4.27	3.44	1.64	4.98	0.946	1.3	1.97	1.49	2.46	1.65	0.959	1.06	3.79	0.666	1.23	1.05
RPGSGYTNIMR [PKLR_Y564]	0.439	0.345	0.64	0.579	0.919	0.586	0.723	0.784	0.532	0.588	0.429	0.707	0.415	2.58	1.43	1.32
DASAVYLRDFQ [PLCG2_Y242_H244R]	0.425	0.506	0.769	0.675	0.562	0.963	0.986	0.544	0.894	0.492	0.452	0.693	0.58	0.471	0.553	0.95
LRRFIYRPPDR [OTOF_Y1231]	0.808	0.529	0.825	0.824	0.678	1.18	0.485	0.854	0.809	0.656	0.583	0.954	0.656	0.725	0.504	0.538
KAEELYIGVTV [EFHC2_Y509]	2.35	0.921	2.15	1.42	2.06	1.35	0.988	2.75	0.966	0.772	5.31	2.2	2.33	0.411	0.756	0.648
PSQRRNVFFFS [PTEN_Y174_Y174N_YF]	1.07	0.559	1.31	0.571	0.924	1.23	0.817	1.41	0.54	0.342	0.493	0.591	0.777	0.613	1.09	0.769
LAEMNYVHRDL [EPHB1_Y740]	0.412	0.441	1.32	0.659	0.529	0.709	1.15	0.362	1.4	0.632	0.32	0.432	0.503	0.403	0.578	0.882
KIEGIYARDET [RPL35A_Y34_V33I]	0.585	0.536	0.887	0.413	1.07	0.919	0.493	1.12	0.663	0.497	0.491	1.09	0.619	0.548	0.788	0.883
CDKEFYSVHNK [MET_Y1235_Y1230C_YF]	0.441	0.461	0.732	0.423	0.504	0.827	0.55	0.46	0.68	0.586	0.405	0.491	0.606	0.727	0.902	1
GGMTEYNLVVV [KRAS_Y4_K5N]	1.08	0.642	1.21	0.398	0.486	1.1	0.758	0.609	0.981	0.552	1.17	0.478	1.05	0.352	0.488	0.669
AAQNCYKVTNA [TPI1_Y105_G110A]	0.367	0.355	0.522	0.62	0.454	0.639	0.466	0.36	0.552	0.455	0.354	0.44	0.46	0.608	0.639	1.15
VKANTYENYWP [GATM_Y100_K102N]	1.17	7.05	0.893	2.41	2.59	0.81	0.801	1.65	0.994	7.05	1.2	3.07	0.818	3.55	1.9	13.2
YDRREYSRFEK [ITGB7_Y758]	0.459	0.486	0.902	0.512	0.498	0.957	0.96	0.673	0.925	0.483	0.545	0.702	0.554	0.737	0.813	1.02
VIEQRYNETWL [SLC2A4_Y56_S55R]	0.516	0.467	0.809	0.381	0.538	1.05	0.659	0.468	0.744	0.519	0.457	0.402	0.553	0.605	0.497	0.92
PSRKDYETFQP [CTNND2_Y1154_YF]	0.558	1.04	1.22	0.572	0.605	1.21	0.907	0.73	1.11	1.52	0.473	0.737	0.667	0.645	0.372	0.884
ATATEYHTTSH [SLC4A1_Y46_D45E]	0.456	0.316	0.506	0.395	0.38	0.509	0.487	0.333	0.99	0.55	0.301	0.413	0.309	0.548	0.518	1

Sequence	phosphorylation enrichment (FGFR1)	phosphorylation enrichment (EPHB1)	phosphorylation enrichment (AncSZ)	phosphorylation enrichment (MERTK)	phosphorylation enrichment (Fyn)	phosphorylation enrichment (Fes)	phosphorylation enrichment (c-Abl (mouse))	phosphorylation enrichment (Hck)	phosphorylation enrichment (Jak2)	phosphorylation enrichment (EPHB2)	phosphorylation enrichment (Fer (mouse))	phosphorylation enrichment (c-Src)	phosphorylation enrichment (FGFR3)	SH2 binding enrichment (c-Src SH2)	SH2 binding enrichment (SHP2-C SH2)	SH2 binding enrichment (Grb2 SH2)
SVVVPYEPPDV [TP53_Y220_E224D]	0.524	0.554	0.984	0.337	0.429	0.932	0.603	0.447	0.752	0.528	0.456	0.415	0.612	0.735	0.73	0.89
RPCVVYGGADI [DDX3X_Y301]	0.715	0.901	1	0.642	1.07	1.02	0.703	1.12	0.668	0.543	0.653	1.44	0.735	0.6	0.773	0.823
QDLRLYRPHLA [BTK_Y617_G613D]	0.358	0.517	0.578	0.363	0.505	0.931	0.571	0.548	1.17	0.467	0.5	0.474	0.488	0.581	0.555	0.728
REAMEYLESKQ [BTK_Y511_C506R]	0.754	0.657	1.62	0.501	0.703	1.15	1.15	0.505	1.09	0.573	0.704	0.701	0.794	0.491	0.678	0.706
PPSGEYFGHCG [TRIP6_Y275_Q278H]	0.698	0.85	1.69	0.529	0.698	1.38	0.904	0.983	0.999	1.02	0.668	0.509	1.18	0.599	0.713	1.06
EWKQNYEESQS [MYH7_Y1460_K1459N]	0.546	0.542	1.16	0.497	0.481	1.25	0.967	0.605	1.32	0.664	0.792	0.461	0.692	0.561	0.666	0.829
LRAGVYHEKDQ [DNM2_Y626_P627H]	0.635	0.629	0.735	0.491	0.608	1.29	0.877	0.605	1.08	0.451	0.509	0.617	0.763	0.445	0.657	0.92
TFAVSYLPDMS [FLNC_Y1602_T1599A_YF]	0.5	0.598	0.939	0.441	0.466	1.21	0.61	0.5	0.741	0.392	0.439	0.378	0.816	0.566	1.01	0.905
LWEGSYGKVKE [STK11_Y60_G56W]	0.587	0.476	0.872	0.509	0.623	2.28	0.69	0.678	1.08	0.491	0.647	0.721	0.77	0.507	1.21	0.645
PLKALYLQQRP [ATM_Y2969]	0.774	0.766	0.954	0.695	0.822	1.49	0.934	0.642	1.17	0.687	0.764	0.576	0.743	0.914	1.07	1.3
KDDEKYLDVIR [MTM1_Y260]	0.453	0.461	0.961	0.434	0.433	0.971	0.689	0.501	0.987	0.49	0.405	0.409	0.663	0.515	0.64	0.874
YLTSSYINIST [IL23R_Y178]	1.27	0.735	0.978	0.648	0.488	1.18	1.11	0.637	1.81	0.588	0.567	0.466	1.29	2.21	1.9	11.7
AAVNGYAFGGG [ECHS1_Y137]	0.435	0.347	0.495	0.324	0.423	0.553	0.548	0.344	0.521	0.389	0.473	0.379	0.406	0.455	0.647	0.75
ASIVDYNIIGW [MYH7_Y588_G584S]	0.948	0.742	1.11	0.498	0.45	1.22	0.92	0.605	0.947	0.528	0.59	0.514	0.865	0.535	0.769	0.761
RYFTTYDTNGR [CLCA1_Y665]	0.709	0.672	0.657	0.557	0.693	0.746	0.296	0.943	0.742	0.698	0.471	0.774	0.598	0.556	1.24	0.777
VVVTKYCKEEL [ATP7B_Y1078_A1074V]	0.58	0.639	1.08	0.447	0.568	1.37	0.873	0.546	0.968	0.658	0.554	0.492	0.824	0.369	0.609	0.637
